Test results taken from patent US20040091945A1, “Peptides and methods of screening immunogenic peptide vaccines against Alzheimer's Disease” (priority 2002, published 2004).

How the values were obtained:
recombinant HLA A0201 = recombinant HLA A0201 (Homo sapiens, UniProt P04439, D140Y/D185E/D98H/E176V/E277Q/G131W/G231S/I119V/I121R/I166T/I218V/L300P/L318F/N151K/N90K/P208A/P217A/Q86G/Q94H/R138H/R169H/T345S); assay: Competition with radiolabelled control peptide for binding to recombinant HLA A0201; conditions: initial screening, 1 uM peptide, 1 nM rHLA A0201 (FIG. 1)
Description: FIG. 1: FIG. 1: Binding of radiolabelled peptide to 1 nM rHLA A0201 in absence or presence of 1 uM Abeta 1-42 or homologue-derived peptides (numbered 1-10; see Table 4). Binding is shown relative to measured binding without competition (maximal binding). The control peptide (ctrl): […] (SEQ ID NO. 1).
The binding (or lack thereof) of HLA-A2.01 epitopes derived from the Abeta homologue LV/EE (modifications at positions 17 and 18) was tested in an in vitro system to validate the computer predictions. Comparisons were made to predicted epitopes from the wild-type human Abeta 1-42 sequence. Recombinant HLA A0201 heavy chains were produced in E. coli and purified from inclusion bodies according to a standard procedure described elsewhere (Ostergaard Pederson, L. et al. 2001). Briefly, HLA 0201 heavy chains (1 nM were incubated for 4 hr. at room temperature with 1 nM iodinated control binding peptide ([…]-SEQ ID No. 1; this peptide has a score of 607.884 when submitted to the ILA Peptide Binding Prediction program at BIMAS), 1000 nM human β2M and graded doses (indicated in figures) of unlabelled peptide of interest (derived from Abeta or its homologue). Receptor bound and free peptide were separated by G25 spun column chromatography (Buus, S. et al. 1995) and counted in a gamma counter (Cobra). The peptides used in this study are listed in Table 4: […]

[1] = molecular target: T1, recombinant HLA A0201 (heavy chain produced in E. coli, with human beta2-microglobulin) (human); assay: competition with iodinated [..] for recombinant HLA A0201; 1 uM unlabelled peptide
T1 construct: also called rHLA A0201; HLA-A2.01

Molecule | ability to compete away the binding of the control radiolabeled peptide to recombinant HLA-A201 molecules (recombinant HLA A0201) | binding result [1]
AEFRHDSGY | did not bind well | –
FRHDSGYEV | did not bind well | –
GLMVGGVVI | able to compete | –
HHQKEEFFA | did not bind well | –
IIGLMVGGV | able to compete | –
KEEFFAEDV | did not bind well | –
KLVFFAEDV | able to compete | –
LMVGGVVIA | able to compete | –
YEVHHQKEE | did not bind well | –
YEVHHQKLV | did not bind well | –
KLVFFAEDV [Peptide 2, KLVFFAEDV, derived from Abeta 1-42] | – | binds
IIGLMVGGV [Peptide 6, IIGLMVGGV, derived from Abeta 1-42] | – | binds
GLMVGGVVI [Peptide 1, GLMVGGVVI, derived from Abeta 1-42] | – | binds
LMVGGVVIA (6) [Peptide 10, LMVGGVVIA, derived from Abeta 1-42] | – | binds
